In the supplement of paper PMC9170038:

System: MS2 coat protein
Experiment: apparent KD of MS2 coat protein; designed switch direction (-1 OFF switch, 1 ON switch): -1; higher = weaker reporter binding
Method in brief: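 For each design, the apparent KD is the median over clusters of curves fitted to normalised cluster fluorescence. Clusters held RNA switches with common flanks, transcribed on Illumina chips by stalled E. coli RNA polymerase. These were titrated with SNAP-549-labelled MS2 coat protein, doubling from 0.7 or 1.5 nM to 3 µM, without input, with 200 uM small-molecule ligand, or with an oligonucleotide input.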

[1] = Eterna round: R95, input ligand: microRNA oligo, concentration not stated
[2] = input ligand: microRNA oligo, concentration not stated
[3] = Eterna round: R95, input ligand: FMN 200 uM
[4] = Eterna round: R95, input ligand: none

| Sequence | apparent KD of MS2 coat protein [1] [nM] | apparent KD of MS2 coat protein (input ligand: FMN 200 uM) [nM] | apparent KD of MS2 coat protein (input ligand: none) [nM] | apparent KD of MS2 coat protein [2] [nM] | apparent KD of MS2 coat protein [3] [nM] | apparent KD of MS2 coat protein [4] [nM] |
| --- | --- | --- | --- | --- | --- | --- |
| AGAUCCUGAGUCAGGAUAUAGAGGCGGUAGCCUGGCUAGAAGGGACAUGAGGAUCACCCAUGUGGGUUCGAGCC [Isonus] (puzzle: Brourd's mod of Exclusion 4) | 16.7 |  |  |  |  |  |
| AGAUCUCAUGACGUUUGCAACAUGAGGAUCACCCAUGUGAGGAGGGUAAACAAACCAAGCUUCGUGCUCGUCUAUAA [Eternabot (Original) Solution 46] (Eterna round: R97, puzzle: Sensor, turn-off variant 1) |  | 38.9 | 52.3 |  |  |  |
| AGAUCUGCAGGAUAUGGUUUUCGUGACAUGAGGAUCACCCAUGUCUUAUGUCCGCAUGUUUCAGAAGGGCAGGACG [Eternabot (L1) Solution 71] (Eterna round: R97, puzzle: Exclusion 5) |  | 74.3 | 27.8 |  |  |  |
| AGAUGCUUAAGUCGACAUGAGGAUCACCCAUGUACAGUUAACGAGGAUAUCCGAAAUAAAUAAUAGGAGAAGGCGUGAUCAUGA [Ex NG3 #1] (Eterna round: R96, puzzle: Exclusion NG 3) |  | 82.4 | 307 | 145 |  |  |
| AGAUGGCGAGGAUAUACAUGAGGAUCACCCAUGUGAAUAAGAAGAGUGAGGAAGAAAAGUAGAAGGCGCUGUCA [Mat - Exclusion 3 - Mod of Salish D31] (puzzle: Exclusion 3) | 64.6 |  |  |  | 128 | 99.8 |
| AGAUGGCGAGGAUAUACAUGAGGAUCACCCAUGUGAGAAUAGAAAGUGAGGAAGAAAAGUAGAAGGCGCUGUCA [Mat - Exclusion 3 - Mod of Salish D22] (puzzle: Exclusion 3) | 59.7 |  |  |  | 125 | 73.4 |
| AGAUGUAGAUACCGAUCCUACAUGAGGAUCACCCAUGUAGCUAGACGUGCGCGCGGCGCUCGUCAGACUACCAGUAG [salish99_TOv1_r3_093] (Eterna round: R96, puzzle: Sensor v3, turn-off variant 1) |  | 499 | 364 | 250 |  |  |
| AGAUGUAGAUACCGAUCCUACAUGAGGAUCACCCAUGUAGCUAGACGUGCGCGCGGCGCUCGUCAGACUACCAGUAG [salish99_TOv1_r3_093] (puzzle: Sensor v3, turn-off variant 1) | 248 |  |  |  | 328 | 326 |
| AGAUUACAUGAGGAUAUCGUAUUGGAUAUAGUGCGAGAAGGCAUGACAUGAGGAUCACCCAUGUAGUGUUGGGA [JR_Ex6_Sub010] (Eterna round: R97, puzzle: Exclusion 6) |  | 117 | 187 |  |  |  |
| AGAUUGCGGCAAGGAUAUCUUUGUCAACUUAAAACAUGAGGAUCACCCAUGUGCAUCUUCGUGUGAGAGAAGGUGCGGCGAUCC [Raesredi] (Eterna round: R96, puzzle: Exclusion NG 2) |  | 1430 | 687 | 368 |  |  |
| AGAUUUGUAGUGAGGAUAUAGGAUGAGUAGUAGUACUAGAAGGCACAUGAGGAUCACCCAUGUAAGUGAAUGAG [Exclusion 4 mod test] (Eterna round: R97, puzzle: Brourd's mod of Exclusion 4) |  | 22.6 | 20.2 |  |  |  |
| AGCAAAUCAGGAUAUGUACUGGACGACAUGAGGAUCACCCAUGUGAUUCAGUGCGCGAGAACAGAAGGGAUUCGCU [Isor] (puzzle: Exclusion 5) | 15.4 |  |  |  |  |  |
| AGCAAGCAAUAGGAUAUGCCUGCAAGCUUGCACGCAGAAGGAUUGACUUGAGGAUCACCCAAGUGGGCUCCAAA [Xemaesti] (Eterna round: R97, puzzle: Exclusion 6) |  | 356 | 83.6 |  |  |  |
| AGCAGACGAGGAUAUAGAUUUAAGUACAUGAGGAUCACCCAUGUACAUAUGUAUUUAGAUUUAGAAGGCGUCUGCU [E5/16-A1] (Eterna round: R97, puzzle: Exclusion 5) |  | 27.7 | 28.6 |  |  |  |
| AGCAGACGAGGAUAUAGAUUUGUUGACAUGAGGAUCACCCAUGUGAUCGAUCUAUCAUAUUUAGAAGGUGUCUGCU [JR_Ex5_Sub041] (Eterna round: R97, puzzle: Exclusion 5) |  | 18.6 | 14.3 |  |  |  |
| AGCAUGUAAGGAUAUGCAAGUGGCACGGAUAGUACCAGAAAGCAGAAGGUACAUGAGGAUCACCCAUGUGCUCC [Anenen] (Eterna round: R96, puzzle: Exclusion 4) |  | 233 | 80.1 | 67.2 |  |  |
| AGCCACAGAGGAUAUACAUACAUCCAGUAGUUAAGAAAACUACAUGAGGAUCACCCAUGUAGAAGGCUGUGGCA [Omei Ex2 BD B5] (Eterna round: R97, puzzle: Exclusion 2) |  | 507 | 101 |  |  |  |

| Sequence | apparent KD of MS2 coat protein [1] [nM] | apparent KD of MS2 coat protein (input ligand: FMN 200 uM) [nM] | apparent KD of MS2 coat protein (input ligand: none) [nM] | apparent KD of MS2 coat protein [2] [nM] | apparent KD of MS2 coat protein [3] [nM] | apparent KD of MS2 coat protein [4] [nM] |
| --- | --- | --- | --- | --- | --- | --- |
| AGCCACAGAGGAUAUACAUACAUCCAGUAGUUAAGAAUACAACAUGAGGAUCACCCAUGUAGAAGGCUGUGGCA [Omei Ex2 BD B9] (Eterna round: R97, puzzle: Exclusion 2) |  | 348 | 103 |  |  |  |
| AGCCACAGAGGAUAUACAUACAUCCAGUAGUUAAGAAUACUACAUGAGGAUCACCCAUGUAGAAGGCUGUGGCA [Omei Ex2 BD B6] (Eterna round: R97, puzzle: Exclusion 2) |  | 383 | 84.3 |  |  |  |
| AGCCACAGAGGAUAUACAUACAUCCAGUAGUUGAGAAAACUACAUGAGGAUCACCCAUGUAGAAGGCUGUGGCA [Omei Ex2 BD B4] (Eterna round: R97, puzzle: Exclusion 2) |  | 27.4 | 321 |  |  |  |
| AGCCAUCUUGUGAGGAUAUGCCCUGGUCAAAGCCGGUAGAAGGUACAUGAGGAUCACCCAUGUGAACUAAUCUA [Eternabot (L1) Solution 90] (Eterna round: R97, puzzle: Brourd's mod of Exclusion 4) |  | 14.1 | 16.2 |  |  |  |
| AGCCCUGCAGGAUAUGCCCGGGAUAACAUGAGGAUCACCCAUGUGACUGAUUGUUAUUCUGCAGAAGGGCAUGGGA [JL-EX5-4.14 ViennaUCT mod] (Eterna round: R97, puzzle: Exclusion 5) |  | 335 | 494 |  |  |  |
| AGCCUACAUGAGGAUCACCCAUGUCAGGAUAUCUCGCGGCGUGUCAAGUUCACACUGCAGAGAAGGGACUCGGG [Edsoriri] (puzzle: Exclusion 1) | 51.4 |  |  |  |  |  |
| AGCCUAGCAGGAUAUGCUCGGGAUUACAUGAGGAUCACCCAUGUGACUGAUUGUUGUCUUGCAGAAGGGCUAGGGA [JL-EX5-4.04 ViennaUCT mod] (Eterna round: R97, puzzle: Exclusion 5) |  | 365 | 49 |  |  |  |
| AGCCUGGGUUCGCCCAGGUACAUGAGGAUCACCCAUGUCAUGGGUACUUGUGUUGGUAGGCAGUGUGCUCGUCUUAU [Cac Sensor turnoff v1 sub10] (Eterna round: R97, puzzle: Sensor, turn-off variant 1) |  | 719 | 1050 |  |  |  |
| AGCGAAUAGGUAGGAUAUGAGAAUAGAUAGAGCUCAGAAGGACCACAUGAGGAUCACCCAUGUAAAGUCUUGAGGCUGCGUGGU [Prohibition 15 - Jieux - Exclusion NG 1] (Eterna round: R96, puzzle: Exclusion NG 1) |  | 51 | 17.5 | 14.4 |  |  |
| AGCGAGGUAGGAUAUACAUGAGGAUCACCCAUGUGCUUGCAUGGCGUGGAACGUCGAGGUAGAAGGGCCAUGCC [EX3 #73] (Eterna round: R97, puzzle: Exclusion 3) |  | 24.5 | 27.8 |  |  |  |
| AGCGUGUGAGGAUAUCGAUAUUGGAAGUCUAGGUCUGAGCGCGAGAAGGCACAUGAGGAUCACCCAUGUAAGGG [Teceor] (Eterna round: R97, puzzle: Exclusion 4) |  | 516 | 375 |  |  |  |
| AGCUAGAUAGGAUAUGCCCGAGAUAACAUGAGGAUCACCCAUGUGACCGAAUCUAUUCUAGCAGAAGGGUUUAGGA [Mod of ViennaUCT 17 - Jieux - Exclusion 5] (Eterna round: R97, puzzle: Exclusion 5) |  | 16.5 | 14 |  |  |  |
| AGCUAGAUAGGAUAUGCCCGGGAUAACAUGAGGAUCACCCAUGUGACCGAAUCAAAUCCAGCAGAAGGGUUUGGGA [Mod of ViennaUCT 13 - Jieux - Exclusion 5] (Eterna round: R97, puzzle: Exclusion 5) |  | 22 | 18.6 |  |  |  |
| AGCUAGAUAGGAUAUGCCCGGGAUAACAUGAGGAUCACCCAUGUGGCCGAAUCAUGUCCAGCAGAAGGGUUUGGGA [Mod of ViennaUCT 10 - Jieux - Exclusion 5] (Eterna round: R97, puzzle: Exclusion 5) |  | 18.2 | 17 |  |  |  |
| AGCUAGUCAGGAUAUACGAAAAUGUCAGAAGCUGAGAAGGGACAUGAGGAUCACCCAUGUAGAAGGGACUAGCA [Diamond 37] (Eterna round: R96, puzzle: Exclusion 2) |  |  |  | 48.7 |  |  |
| AGCUAGUCAGGAUAUUCUAAUAAUUACAUGAGGAUCACCCAUGUGAAUGGACAAGGGUGUGAAGAAGGGACUAGCG [Omei Ex5 A9] (Eterna round: R97, puzzle: Exclusion 5) |  | 429 | 1230 |  |  |  |
| AGCUAGUGCCGAGGAUAUACAUGAGGAUCACCCAUGUAAGCCAGUCGGUUUCUGACUGGCAAGAUGUAGAAGGCGGCGUUGGCA [JL ENG2 1.50] (Eterna round: R96, puzzle: Exclusion NG 2) |  | 57.1 | 13.5 | 9.57 |  |  |
